± gives the uncertainty stated by the source.
Assay: self-splicing fitness, log relative to wild type (ln ratio); higher = more splicing; Tetrahymena group I intron in knt gene, E. coli kanamycin selection, DiMSum; sequences stand for … in CUCUCU…GGAGGGAAAAGUUAUCAGGCAUGCACCUGGUAGCUAGUCUUUAAACCAAUAGAUUGCAUCGGUUUAAAAGGCAAGACCGUCAAAUUGCGGGAAAGGGGUCAACAGCCGUUCAGUACCAAGUCUCAGGGGAAACUUUGAGAUGGCCUUGCAAAGGGUAUGGUAAUAAGCUGACGGACAUGGUCCUAACCACGCAGCCAAGUCCUAAGUCAACAGAUCUUCUGUUGAUAUGGAUGCAGUUCACAGACUAAAUGUCGGUCGGGGAAGAUGUAUUCUUCUCAUAAGAUAUAGUCGGACCUCUCCUUAAUGGGAGCUAGCGGAUGAAGUGAUGCAACACUGGAGCCGCUGGGAACUAAUUUGUAUGCGAAAGUAUAUUGAUUAGUUUUGGAGUACUCGUGGUCG
How it was run: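 Colonies from six replicate transformations of E. coli BL21(DE3) were pooled and amplicon-sequenced on an Illumina HiSeq 2500. The library placed an intron with all eight P1ex-region nucleotides randomised inside the knt kanamycin-resistance gene on pET-22b(+), and cells grew overnight at 37°C or 30°C on LB agar with or without 25 μg/mL kanamycin (plus 100 μg/mL carbenicillin, 50 μM IPTG, 0.2% rhamnose). Fitness is the DiMSum error-weighted combination of wild-type-normalised replicate fold changes, kanamycin versus none.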

Row | Sequence | self-splicing fitness (ln) (30 °C) | self-splicing fitness (ln) (37 °C)
1 | UGAGAGCAAUAUUACGCUGA | -2.42 ± 0.32 | -1.53 ± 0.28
2 | GUCAAGCAAUAUUACGCUGU | -3.26 ± 0.13 | -2.42 ± 0.19
3 | UUCAAGCAAUAUUACGUCAU | -2.97 ± 0.15 | -2.59 ± 0.13
4 | AAAAAGCAAUAUUACGGAUU | -0.657 ± 0.068 | -0.635 ± 0.096
5 | UGCAAGCAAUAUUACGCAUG | -3.63 ± 0.21 | -2.32 ± 0.29
6 | CGUCAGCAAUAUUACGUUAU | -2.95 ± 0.14 | -2.83 ± 0.17
7 | GUAUAGCAAUAUUACGGGAU | -3.5 ± 0.29 | -0.308 ± 0.11
8 | ACAAAGCAAUAUUACGGUCG | -1.24 ± 0.055 | -0.228 ± 0.08
9 | AGGCAGCAAUAUUACGUGCC | -2.9 ± 0.26 | -2.73 ± 0.31
10 | UCAAAGCAAUAUUACGGCUU | -5.11 ± 0.45 | -2.32 ± 0.2
11 | CGGAAGCAAUAUUACGUUCA | -0.293 ± 0.13 | 0.673 ± 0.16
12 | GUUGAGCAAUAUUACGGGGU | -3.56 ± 0.25 | -2.42 ± 0.22
13 | AUUCAGCAAUAUUACGAAGU | -1.52 ± 0.11 | -0.236 ± 0.12
14 | CACGAGCAAUAUUACGGAUU | -3.86 ± 0.3 | -2.47 ± 0.26
15 | AGACAGCAAUAUUACGCAAU | -2.41 ± 0.17 | -0.644 ± 0.11
16 | CUCAAGCAAUAUUACGUCGU | -3.21 ± 0.15 | -1.12 ± 0.11
17 | GCCGAGCAAUAUUACGACGA | -1.34 ± 0.11 | -0.792 ± 0.098
18 | ACAAAGCAAUAUUACGACGA | -0.436 ± 0.063 | -0.207 ± 0.062
19 | GUGUAGCAAUAUUACGCUAC | -2.35 ± 0.49 | 
20 | AGACAGCAAUAUUACGCGAA | -2.45 ± 0.12 | -0.878 ± 0.1

Row | Sequence | self-splicing fitness (ln) (30 °C) | self-splicing fitness (ln) (37 °C)
21 | GACCAGCAAUAUUACGUUGG | -3.95 ± 0.13 | -2.53 ± 0.12
22 | AUAAAGCAAUAUUACGCCAG | -0.993 ± 0.12 | -0.785 ± 0.16
23 | AACAAGCAAUAUUACGCCAU | -2.66 ± 0.11 | -2.08 ± 0.13
24 | UAUGAGCAAUAUUACGAGUU | -3.21 ± 0.17 | -2.57 ± 0.24
25 | GCUCAGCAAUAUUACGUAUU | -0.945 ± 0.053 | -0.23 ± 0.068
26 | GCACAGCAAUAUUACGACAG | -2.97 ± 0.25 | -1.8 ± 0.23
27 | CGUCAGCAAUAUUACGCUCA | -1.1 ± 0.15 | 0.0237 ± 0.12
28 | AGCGAGCAAUAUUACGAGGG | -2.74 ± 0.3 | -1.19 ± 0.35
29 | CUGUAGCAAUAUUACGCCAC | -2.54 ± 0.25 | -2.09 ± 0.47
30 | UCCUAGCAAUAUUACGAAGU | -1.47 ± 0.1 | -0.726 ± 0.14
31 | GAGGAGCAAUAUUACGCGUU | -3.99 ± 0.39 | -2.2 ± 0.36
32 | GAUAAGCAAUAUUACGAUUA | -0.905 ± 0.12 | 0.0831 ± 0.12
33 | AAGUAGCAAUAUUACGUGAG | -1.57 ± 0.048 | -0.575 ± 0.066
34 | UCAAAGCAAUAUUACGGGCA | -0.629 ± 0.063 | -0.273 ± 0.069
35 | UAGAAGCAAUAUUACGGGCA | -1.17 ± 0.16 | -0.144 ± 0.12
36 | AGGUAGCAAUAUUACGUAAA | -2.285 ± 0.018 | -1.39 ± 0.034
37 | UGGAAGCAAUAUUACGUGGC | -3.41 ± 0.25 | -2.71 ± 0.33
38 | UUACAGCAAUAUUACGGUCU | -0.96 ± 0.075 | -0.357 ± 0.088
39 | GCAAAGCAAUAUUACGAAUG | -3.4 ± 0.15 | -1.77 ± 0.12
40 | CUUGAGCAAUAUUACGCUAG | -3.17 ± 0.28 | -2.48 ± 0.27

Row | Sequence | self-splicing fitness (ln) (30 °C) | self-splicing fitness (ln) (37 °C)
41 | UAAGAGCAAUAUUACGAGCC | -3.56 ± 0.25 | -2.26 ± 0.24
42 | GAAUAGCAAUAUUACGCGAG | -1.19 ± 0.087 | -0.803 ± 0.096
43 | AGGUAGCAAUAUUACGUUGU | -3.385 ± 0.02 | -1.95 ± 0.035
44 | AGAUAGCAAUAUUACGGUUC | -1.77 ± 0.12 | -0.791 ± 0.19
45 | AUGGAGCAAUAUUACGGUUG | -4.12 ± 0.3 | -2.21 ± 0.23
46 | AUUAAGCAAUAUUACGUCGG | -2.34 ± 0.18 | -1.2 ± 0.22
47 | AUCAAGCAAUAUUACGUUCA | -1.91 ± 0.11 | -0.446 ± 0.13
48 | ACGCAGCAAUAUUACGGCGA | -0.895 ± 0.1 | -0.0901 ± 0.14
49 | UAUUAGCAAUAUUACGUCGU | -2.82 ± 0.28 | -3.02 ± 0.32
50 | AAUGAGCAAUAUUACGUGUC | -3.39 ± 0.25 | -3.65 ± 0.39
51 | GAGGAGCAAUAUUACGCCAU | -3.46 ± 0.47 | -2.37 ± 0.41
52 | CGCCAGCAAUAUUACGUUGU | -3.62 ± 0.14 | -3.07 ± 0.15
53 | CAGAAGCAAUAUUACGCGCC | -2.83 ± 0.25 | -1.34 ± 0.18
54 | UACUAGCAAUAUUACGACGC | -2.01 ± 0.25 | 0.0923 ± 0.18
55 | CGGAAGCAAUAUUACGUUAA | -3.47 ± 0.36 | -3.06 ± 0.25
56 | AGGCAGCAAUAUUACGAACG | -1.11 ± 0.14 | 0.48 ± 0.16
57 | GUUGAGCAAUAUUACGUUAA | -2.83 ± 0.38 | -2.34 ± 0.25
58 | UGCCAGCAAUAUUACGUAUG | -1.2 ± 0.069 | -0.775 ± 0.095
59 | UCAUAGCAAUAUUACGUUGG | -4.13 ± 0.46 | -1.05 ± 0.24
60 | UUAUAGCAAUAUUACGGUUG | -1.32 ± 0.12 | -0.629 ± 0.15
